Reference: patent US20240092841A1

Experiments:
Test in all cases: co-IP with agarose-bound AvFc from A549 whole-cell lysate, mass spectrometry
[1] = target: Tetratricopeptide repeat protein 17 (human) (UniProt Q96AE7)
[2] = target: Transmembrane and TPR repeat-containing protein 3 (human) (UniProt Q6ZXV5)
[3] = target: Disintegrin and metalloproteinase domain-containing protein 9 (human) (UniProt Q13443)
[4] = target: Laminin subunit beta-1 (human) (UniProt P07942)
Erlin-1 (human) = Erlin-1 (human) (UniProt O75477)
[5] = target: Sortilin-related receptor (human) (UniProt Q92673)
Plexin-B2 (human) = Plexin-B2 (human) (UniProt O15031)
[6] = target: Galectin-3-binding protein (human) (UniProt Q08380)
Exportin-1 (human) = Exportin-1 (human) (UniProt O14980)
[7] = target: Protocadherin Fat 1 (human) (UniProt Q14517)
[8] = target: Disintegrin and metalloproteinase domain-containing protein 17 (human) (UniProt P78536)
Mucin-5B (human) = Mucin-5B (human) (UniProt Q9HC84)
[9] = target: Scavenger receptor class B member 1 (human) (UniProt Q8WTV0)
[10] = target: Transmembrane protein 131 (human) (UniProt Q92545)
[11] = target: Endothelial protein C receptor (human) (UniProt Q9UNN8)
CD109 antigen (human) = CD109 antigen (human) (UniProt Q6YHK3)
[12] = target: Tropomyosin alpha-3 chain (human) (UniProt P06753)
[13] = target: Sodium/potassium-transporting ATPase subunit beta-1 (human) (UniProt P05026)
[14] = target: Tetratricopeptide repeat protein 13 (human) (UniProt Q8NBP0)
[15] = target: Isoform 6 of Myoferlin (human) (UniProt Q9NZM1)
[16] = target: Cell cycle control protein 50A (human) (UniProt Q9NV96)
[17] = target: Importin subunit beta-1 (human) (UniProt Q14974)
[18] = target: Transmembrane protein 2 (human) (UniProt Q9UHN6)
Agrin (human) = Agrin (human) (UniProt O00468)
Serpin H1 (human) = Serpin H1 (human) (UniProt P50454)
[19] = target: Cation-independent mannose-6-phosphate receptor (human) (UniProt P11717)
Polycystin-2 (human) = Polycystin-2 (human) (UniProt Q13563)
[20] = target: Laminin subunit gamma-1 (human) (UniProt P11047)
[21] = target: Contactin-associated protein-like 3 (human) (UniProt Q9BZ76)
[22] = target: Adhesion G protein-coupled receptor L2 (human) (UniProt O95490)
[23] = target: Transmembrane protein 106B (human) (UniProt Q9NUM4)
Erlin-2 (human) = Erlin-2 (human) (UniProt O94905)
[24] = target: Neutral amino acid transporter B (0) (human) (UniProt Q15758)
Mucin-5AC (human) = Mucin-5AC (human) (UniProt P98088)
Integrin alpha-5 (human) = Integrin alpha-5 (human) (UniProt P08648)
[25] = target: Insulin-like growth factor 1 receptor (human) (UniProt P08069)
[26] = target: Transferrin receptor protein 1 (human) (UniProt P02786)
[27] = target: Metal transporter CNNM4 (human) (UniProt Q6P4Q7)
[28] = target: Laminin subunit beta-2 (human) (UniProt P55268)

UniProt Q13443, sequence (Q13443 29-819 limits assumed): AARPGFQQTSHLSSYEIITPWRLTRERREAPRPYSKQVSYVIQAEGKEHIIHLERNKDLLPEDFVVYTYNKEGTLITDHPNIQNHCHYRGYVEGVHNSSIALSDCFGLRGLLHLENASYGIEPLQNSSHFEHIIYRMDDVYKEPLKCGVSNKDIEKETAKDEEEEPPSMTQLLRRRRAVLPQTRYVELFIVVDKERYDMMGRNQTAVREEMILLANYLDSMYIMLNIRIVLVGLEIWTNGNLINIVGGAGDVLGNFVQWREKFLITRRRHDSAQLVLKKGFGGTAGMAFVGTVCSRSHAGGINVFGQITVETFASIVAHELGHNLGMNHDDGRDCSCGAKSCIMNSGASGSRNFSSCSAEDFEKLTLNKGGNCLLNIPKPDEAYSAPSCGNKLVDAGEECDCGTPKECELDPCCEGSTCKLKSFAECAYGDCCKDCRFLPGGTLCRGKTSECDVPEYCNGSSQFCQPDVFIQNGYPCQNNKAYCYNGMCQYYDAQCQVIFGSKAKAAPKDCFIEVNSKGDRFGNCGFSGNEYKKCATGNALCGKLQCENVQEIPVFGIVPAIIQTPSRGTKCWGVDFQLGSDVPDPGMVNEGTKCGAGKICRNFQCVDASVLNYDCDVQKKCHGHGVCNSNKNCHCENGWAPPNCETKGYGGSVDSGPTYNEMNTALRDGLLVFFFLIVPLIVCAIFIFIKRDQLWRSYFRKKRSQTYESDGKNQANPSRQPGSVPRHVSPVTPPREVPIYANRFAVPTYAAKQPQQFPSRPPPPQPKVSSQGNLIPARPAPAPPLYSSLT
UniProt O15031, sequence (O15031 20-1838 limits assumed): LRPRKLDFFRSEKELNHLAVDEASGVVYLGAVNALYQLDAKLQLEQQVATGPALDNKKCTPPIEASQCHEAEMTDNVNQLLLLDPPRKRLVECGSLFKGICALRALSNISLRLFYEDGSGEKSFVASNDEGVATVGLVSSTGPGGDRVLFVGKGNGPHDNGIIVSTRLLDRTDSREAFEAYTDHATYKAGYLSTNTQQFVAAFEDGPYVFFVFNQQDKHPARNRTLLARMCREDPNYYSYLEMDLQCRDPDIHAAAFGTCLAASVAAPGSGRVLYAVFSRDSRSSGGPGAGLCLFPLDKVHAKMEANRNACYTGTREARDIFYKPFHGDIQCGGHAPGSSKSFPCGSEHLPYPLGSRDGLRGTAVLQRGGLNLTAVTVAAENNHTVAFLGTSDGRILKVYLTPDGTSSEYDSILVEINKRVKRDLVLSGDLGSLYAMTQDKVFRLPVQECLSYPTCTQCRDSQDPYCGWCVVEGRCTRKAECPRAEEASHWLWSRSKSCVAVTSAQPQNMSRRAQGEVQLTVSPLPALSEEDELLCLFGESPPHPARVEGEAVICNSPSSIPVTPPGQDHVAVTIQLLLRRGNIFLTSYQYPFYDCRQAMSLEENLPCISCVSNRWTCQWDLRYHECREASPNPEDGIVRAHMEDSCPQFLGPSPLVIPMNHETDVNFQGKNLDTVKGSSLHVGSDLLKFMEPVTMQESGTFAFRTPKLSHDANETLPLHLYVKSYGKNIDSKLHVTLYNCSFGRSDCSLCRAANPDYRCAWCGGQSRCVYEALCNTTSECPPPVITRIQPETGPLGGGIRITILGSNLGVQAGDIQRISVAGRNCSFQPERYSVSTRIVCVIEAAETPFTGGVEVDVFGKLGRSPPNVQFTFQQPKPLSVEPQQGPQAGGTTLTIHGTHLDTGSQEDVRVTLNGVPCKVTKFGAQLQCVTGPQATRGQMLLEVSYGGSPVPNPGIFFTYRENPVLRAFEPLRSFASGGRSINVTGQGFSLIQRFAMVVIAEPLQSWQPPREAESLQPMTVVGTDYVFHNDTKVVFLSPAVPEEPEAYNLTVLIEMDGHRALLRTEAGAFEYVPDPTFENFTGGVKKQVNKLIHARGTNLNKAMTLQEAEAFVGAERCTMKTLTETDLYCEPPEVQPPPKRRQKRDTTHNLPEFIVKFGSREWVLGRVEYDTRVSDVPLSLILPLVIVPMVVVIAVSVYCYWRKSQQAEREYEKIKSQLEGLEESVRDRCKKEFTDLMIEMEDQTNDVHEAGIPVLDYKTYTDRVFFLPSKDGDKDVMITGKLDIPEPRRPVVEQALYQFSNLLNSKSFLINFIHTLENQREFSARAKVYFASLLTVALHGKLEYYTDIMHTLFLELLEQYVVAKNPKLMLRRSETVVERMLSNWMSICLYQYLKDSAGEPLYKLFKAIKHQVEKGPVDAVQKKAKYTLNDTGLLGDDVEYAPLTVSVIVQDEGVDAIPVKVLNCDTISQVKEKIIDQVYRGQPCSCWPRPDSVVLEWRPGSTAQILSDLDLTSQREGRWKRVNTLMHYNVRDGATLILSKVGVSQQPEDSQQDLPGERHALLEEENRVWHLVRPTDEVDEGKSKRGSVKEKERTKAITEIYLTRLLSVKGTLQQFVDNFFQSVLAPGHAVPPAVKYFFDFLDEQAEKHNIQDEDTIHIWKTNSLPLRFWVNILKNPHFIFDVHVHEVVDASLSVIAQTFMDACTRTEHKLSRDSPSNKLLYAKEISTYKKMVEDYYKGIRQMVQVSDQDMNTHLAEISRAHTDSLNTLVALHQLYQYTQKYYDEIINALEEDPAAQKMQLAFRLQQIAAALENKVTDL
UniProt O14980, sequence (O14980 whole entry): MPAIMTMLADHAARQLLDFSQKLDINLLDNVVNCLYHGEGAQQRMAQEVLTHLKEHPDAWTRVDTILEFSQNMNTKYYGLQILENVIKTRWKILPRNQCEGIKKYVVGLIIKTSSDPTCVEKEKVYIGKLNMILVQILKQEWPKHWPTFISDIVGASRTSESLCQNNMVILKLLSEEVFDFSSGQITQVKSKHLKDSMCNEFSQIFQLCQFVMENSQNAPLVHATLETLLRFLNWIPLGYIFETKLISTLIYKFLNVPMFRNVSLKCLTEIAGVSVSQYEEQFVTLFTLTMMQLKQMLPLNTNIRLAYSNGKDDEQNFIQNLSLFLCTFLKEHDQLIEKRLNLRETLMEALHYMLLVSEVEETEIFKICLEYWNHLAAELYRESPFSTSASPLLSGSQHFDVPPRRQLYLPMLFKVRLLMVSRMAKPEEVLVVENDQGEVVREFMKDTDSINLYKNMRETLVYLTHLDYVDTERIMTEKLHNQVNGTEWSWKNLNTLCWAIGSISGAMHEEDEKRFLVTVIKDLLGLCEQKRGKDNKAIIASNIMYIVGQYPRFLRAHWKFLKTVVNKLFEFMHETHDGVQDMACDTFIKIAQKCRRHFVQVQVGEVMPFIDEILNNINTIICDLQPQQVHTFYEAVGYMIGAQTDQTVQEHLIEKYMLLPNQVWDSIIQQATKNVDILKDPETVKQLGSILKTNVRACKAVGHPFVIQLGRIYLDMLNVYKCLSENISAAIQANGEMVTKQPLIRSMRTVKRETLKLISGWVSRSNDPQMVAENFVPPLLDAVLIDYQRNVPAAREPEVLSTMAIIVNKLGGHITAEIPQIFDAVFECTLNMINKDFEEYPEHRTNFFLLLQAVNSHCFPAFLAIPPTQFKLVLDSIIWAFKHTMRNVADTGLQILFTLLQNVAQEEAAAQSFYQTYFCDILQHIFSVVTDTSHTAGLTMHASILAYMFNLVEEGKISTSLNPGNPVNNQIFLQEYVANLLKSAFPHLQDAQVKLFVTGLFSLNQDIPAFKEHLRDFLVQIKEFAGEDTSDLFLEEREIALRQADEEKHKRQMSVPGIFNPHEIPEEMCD
UniProt Q08380, sequence (Q08380 19-585 limits assumed): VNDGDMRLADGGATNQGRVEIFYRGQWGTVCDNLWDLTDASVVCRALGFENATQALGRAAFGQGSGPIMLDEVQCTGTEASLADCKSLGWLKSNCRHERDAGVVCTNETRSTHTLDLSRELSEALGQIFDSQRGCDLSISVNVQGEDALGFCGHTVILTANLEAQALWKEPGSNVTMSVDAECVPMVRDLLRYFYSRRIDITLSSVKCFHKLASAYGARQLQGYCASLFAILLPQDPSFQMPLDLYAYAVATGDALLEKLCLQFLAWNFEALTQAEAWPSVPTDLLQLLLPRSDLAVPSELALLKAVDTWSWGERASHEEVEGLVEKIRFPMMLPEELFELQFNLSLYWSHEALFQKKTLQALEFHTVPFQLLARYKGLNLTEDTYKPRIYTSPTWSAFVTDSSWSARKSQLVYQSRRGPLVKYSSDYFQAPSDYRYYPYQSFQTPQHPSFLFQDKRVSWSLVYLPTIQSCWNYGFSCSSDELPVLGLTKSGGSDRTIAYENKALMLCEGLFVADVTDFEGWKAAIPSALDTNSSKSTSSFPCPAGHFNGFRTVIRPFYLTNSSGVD
UniProt P50454, sequence (P50454 19-418 limits assumed): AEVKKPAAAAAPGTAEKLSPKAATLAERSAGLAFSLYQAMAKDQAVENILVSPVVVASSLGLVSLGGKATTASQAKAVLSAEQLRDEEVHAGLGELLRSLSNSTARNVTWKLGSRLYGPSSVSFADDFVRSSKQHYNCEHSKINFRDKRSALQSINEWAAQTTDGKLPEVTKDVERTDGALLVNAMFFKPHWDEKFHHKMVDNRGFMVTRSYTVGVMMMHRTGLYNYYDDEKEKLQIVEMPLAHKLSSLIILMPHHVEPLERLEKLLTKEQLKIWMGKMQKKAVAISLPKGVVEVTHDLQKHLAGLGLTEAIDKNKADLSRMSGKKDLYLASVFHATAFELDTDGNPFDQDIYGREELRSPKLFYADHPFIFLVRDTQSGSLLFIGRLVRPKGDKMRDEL
UniProt Q9UNN8, sequence (Q9UNN8 18-238 limits assumed): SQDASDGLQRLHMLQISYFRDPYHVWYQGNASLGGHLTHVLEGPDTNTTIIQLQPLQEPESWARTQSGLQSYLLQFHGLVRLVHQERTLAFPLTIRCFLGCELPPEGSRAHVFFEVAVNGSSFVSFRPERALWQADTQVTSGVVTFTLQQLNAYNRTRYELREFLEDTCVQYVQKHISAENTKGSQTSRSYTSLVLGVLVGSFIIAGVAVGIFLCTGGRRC

Avaren-Fc (AvFc) (Fc fusion)
Percentage of Total Spectra (%) [1]: 0.13%
Percentage of Total Spectra (%) [2]: 0.11%
Percentage of Total Spectra (%) [3]: 0.11%
Percentage of Total Spectra (%) [4]: 0.41%
Percentage of Total Spectra (%) (Erlin-1 (human)): 0.11%
Percentage of Total Spectra (%) [5]: 0.12%
Percentage of Total Spectra (%) (Plexin-B2 (human)): 0.12%
Percentage of Total Spectra (%) [6]: 0.07%
Percentage of Total Spectra (%) (Exportin-1 (human)): 0.056%
Percentage of Total Spectra (%) [7]: 0.12%
Percentage of Total Spectra (%) [8]: 0.056%
Percentage of Total Spectra (%) (Mucin-5B (human)): 0.14%
Percentage of Total Spectra (%) [9]: 0.056%
Percentage of Total Spectra (%) [10]: 0.056%
Percentage of Total Spectra (%) [11]: 0.014%
Percentage of Total Spectra (%) (CD109 antigen (human)): 0.13%
Percentage of Total Spectra (%) [12]: 0.07%
Percentage of Total Spectra (%) [13]: 0.056%
Percentage of Total Spectra (%) [14]: 0.13%
Percentage of Total Spectra (%) [15]: 0.17%
Percentage of Total Spectra (%) [16]: 0.021%
Percentage of Total Spectra (%) [17]: 0.056%
Percentage of Total Spectra (%) [18]: 0.11%
Percentage of Total Spectra (%) (Agrin (human)): 0.21%
Percentage of Total Spectra (%) (Serpin H1 (human)): 0.063%
Percentage of Total Spectra (%) [19]: 0.2%
Percentage of Total Spectra (%) (Polycystin-2 (human)): 0.17%
Percentage of Total Spectra (%) [20]: 0.36%
Percentage of Total Spectra (%) [21]: 0.11%
Percentage of Total Spectra (%) [22]: 0.091%
Percentage of Total Spectra (%) [23]: 0.098%
Percentage of Total Spectra (%) (Erlin-2 (human)): 0.15%
Percentage of Total Spectra (%) [24]: 0.014%
Percentage of Total Spectra (%) (Mucin-5AC (human)): 0.21%
Percentage of Total Spectra (%) (Integrin alpha-5 (human)): 0.035%
Percentage of Total Spectra (%) [25]: 0.091%
Percentage of Total Spectra (%) [26]: 0.16%
Percentage of Total Spectra (%) [27]: 0.091%
Percentage of Total Spectra (%) [28]: 0.056%
